Reference: paper PMC6004067

What was measured:
[1] = biological target: SNAP complex (SNAPc) immobilized on Strep-Tactin beads, Q5SXM2;Q92966;Q13487;Q16533;O75971; experiment: pull-down on immobilized SNAPc, immunoblot quantification; conditions: chain shown with the change
[2] = biological target: SNAP complex (SNAPc), Q5SXM2;Q92966;Q13487;Q16533;O75971; experiment: Flag-bead pull-down, immunoblot quantification; conditions: chain shown with the change

Binder | ratio to parent [1] | ratio to parent [2]
TFIIB, full-length human, Flag- and His-tagged, Q00403 V245A; P246A; G247A; R248A; S249A (protein) MASTSRLDALPRVTCPNHPDAILVEDYRAGDMICPECGLVVGDRVIDVGSEWRTFSNDKATKDPSRVGDSQNPLLSDGDLSTMIGKGTGAASFDEFGNSKYQNRRTMSSSDRAMMNAFKEITTMADRINLPRNIVDRTNNLFKQVYEQKSLKGRANDAIASACLYIACRQEGVPRTFKEICAVSRISKKEIGRCFKLILKALETSVDLITTGDFMSRFCSNLCLPKQVQMAATHIARKAVELDLAAAAAPISVAAAAIYMASQASAEKRTQKEIGDIAGVADVTIRQSYRLIYPRAPDLFPTDFKFDTPVDKLPQL | 0.57 | 
TFIIB, full-length human, Flag- and His-tagged, Q00403 S205A; V206A; D207A; L208A; I209A (protein) MASTSRLDALPRVTCPNHPDAILVEDYRAGDMICPECGLVVGDRVIDVGSEWRTFSNDKATKDPSRVGDSQNPLLSDGDLSTMIGKGTGAASFDEFGNSKYQNRRTMSSSDRAMMNAFKEITTMADRINLPRNIVDRTNNLFKQVYEQKSLKGRANDAIASACLYIACRQEGVPRTFKEICAVSRISKKEIGRCFKLILKALETAAAAATTGDFMSRFCSNLCLPKQVQMAATHIARKAVELDLVPGRSPISVAAAAIYMASQASAEKRTQKEIGDIAGVADVTIRQSYRLIYPRAPDLFPTDFKFDTPVDKLPQL | 0.54 | 
TFIIB, full-length human, Flag- and His-tagged, Q00403 R169E (protein) MASTSRLDALPRVTCPNHPDAILVEDYRAGDMICPECGLVVGDRVIDVGSEWRTFSNDKATKDPSRVGDSQNPLLSDGDLSTMIGKGTGAASFDEFGNSKYQNRRTMSSSDRAMMNAFKEITTMADRINLPRNIVDRTNNLFKQVYEQKSLKGRANDAIASACLYIACEQEGVPRTFKEICAVSRISKKEIGRCFKLILKALETSVDLITTGDFMSRFCSNLCLPKQVQMAATHIARKAVELDLVPGRSPISVAAAAIYMASQASAEKRTQKEIGDIAGVADVTIRQSYRLIYPRAPDLFPTDFKFDTPVDKLPQL |  | 0.32
TFIIB, full-length human, Flag- and His-tagged, Q00403 R185A; K188A; K189A (protein) MASTSRLDALPRVTCPNHPDAILVEDYRAGDMICPECGLVVGDRVIDVGSEWRTFSNDKATKDPSRVGDSQNPLLSDGDLSTMIGKGTGAASFDEFGNSKYQNRRTMSSSDRAMMNAFKEITTMADRINLPRNIVDRTNNLFKQVYEQKSLKGRANDAIASACLYIACRQEGVPRTFKEICAVSAISAAEIGRCFKLILKALETSVDLITTGDFMSRFCSNLCLPKQVQMAATHIARKAVELDLVPGRSPISVAAAAIYMASQASAEKRTQKEIGDIAGVADVTIRQSYRLIYPRAPDLFPTDFKFDTPVDKLPQL | 0.04 | 
TFIIB, full-length human, Flag- and His-tagged, Q00403 R169E; K188E (protein) MASTSRLDALPRVTCPNHPDAILVEDYRAGDMICPECGLVVGDRVIDVGSEWRTFSNDKATKDPSRVGDSQNPLLSDGDLSTMIGKGTGAASFDEFGNSKYQNRRTMSSSDRAMMNAFKEITTMADRINLPRNIVDRTNNLFKQVYEQKSLKGRANDAIASACLYIACEQEGVPRTFKEICAVSRISEKEIGRCFKLILKALETSVDLITTGDFMSRFCSNLCLPKQVQMAATHIARKAVELDLVPGRSPISVAAAAIYMASQASAEKRTQKEIGDIAGVADVTIRQSYRLIYPRAPDLFPTDFKFDTPVDKLPQL |  | 0.13
